This is an account of results in patent US20240101635A1 (AKSTON BIOSCIENCES, published 2024).

Numbering of substitutions follows the chain as printed. Names may count otherwise. Read-outs that look alike come from different tables or passages of the source.

In experiment [1] the target is T1, human insulin receptor (human, UniProt P06213 28-1382).
T1 construct: whole, on cells; Endogenous receptor on IM-9 cells; also called IR
The experiment is described as follows: competition with biotinylated RHI on IM-9 cells, flow cytometry, 4 C. How it is done:
(§1) 40 μL of an IM-9 cell suspension (8×10⁶ cells/mL) was then added to each well by multichannel pipette, mixed again gently and incubated on ice for 30 min to allow competitive binding on the insulin receptor on IM-9 cells. Cells were then washed twice with 275 μL of ice-cold FACS wash buffer (HBSS/2 mM EDTA/0.1% Na-azide+0.5% horse serum) by centrifuging the V-bottom plate at 3000 rpm for 3 min and aspirating the supernatant. Cells were then resuspended in 40 μL of FACS staining medium containing 1:100 diluted Streptavidin-PE (Life Technologies) for 20 min on ice. Cells were then washed once with 275 μL of ice-cold FACS buffer and finally fixed with 3% paraformaldehyde for 10 min at room temp. Cells were then washed once with 275 μL of ice-cold FACS buffer and resuspended in 250 μl of FACS buffer for analysis.
(§2) The V-bottom plates containing cells were then analyzed on a Guava 8-HT flow cytometer (Millipore). Biotinylated-RHI binding to insulin receptor was quantitated by the median fluorescence intensity (MFI) of the cells on the FACS FL-2 channel for each concentration of the test compound. Control wells were labeled only with biotinylated-RHI and were used to calculate the percent (%) inhibition resulting from each test compound concentration. The % inhibition by test compounds of biotinylated-RHI binding on IM-9 cells was plotted against log concentrations of the test compound, and the resulting IC50 values were calculated using GraphPad Prism (GraphPad Software, La Jolla, CA) for the test compounds. Lower IC50 values of the test compound therefore indicate greater levels of biotinylated-RHI inhibition at lower concentrations indicating stronger binding of the insulin-Fc fusion protein to the insulin receptor. A control compound, such as unlabeled recombinant human insulin (RHI) was also used as an internal standard to generate an RHI IC50 against which a given compound IC50 could be ratioed (IC50(compound)/IC50(RHI)). Lower IC50 ratios have more similar binding to RHI (stronger binding to insulin receptor), while higher IC50 ratios have weaker binding to the insulin receptor relative to RHI.
Background: In flow cytometry, cells or beads pass a laser one at a time.

Experiment [2] deals with T1, human insulin receptor. The experiment is described as above. How it is done:
as §1, §2
This is another data set of the same source.

For experiment [3], the target named is T2, biotinylated recombinant human Fc(gamma) receptor I (human, UniProt P12314 16-288, biotinylated (site not stated)).
T2 construct: Bought reagent, used as surrogate for canine/feline Fc(gamma)RI; also called rhFc(gamma) receptor I; Fc(gamma)RI
As to the kind of experiment: ELISA, fusion protein coated, biotinylated rhFc(gamma)RI in solution, pH 7.4. As for the experimental part:
(§3) The binding of insulin-Fc fusion proteins to the Fc(gamma) receptor I at pH 7.4 was conducted using an ELISA assay as follows. Since neither canine nor feline Fc(gamma) receptor I was not commercially available, human Fc(gamma) receptor I (i.e., rhFc(gamma) receptor I) was used as a surrogate mammalian receptor. Insulin-Fc compounds were diluted to 10 μg/mL in sodium bicarbonate buffer at pH 9.6 and coated on Maxisorp (Nunc) microtiter plates overnight at 4° C., after which the microplate strips were washed 5 times with PBST (PBS/0.05% Tween-20) buffer and blocked with Superblock blocking reagent (ThermoFisher). Serial dilutions of biotinylated rhFc(gamma) receptor I (recombinant human Fc(gamma)R-I; R&D Systems) were prepared in PBST/10% Superblock buffer from 6000 ng/mL to 8.2 ng/mL and loaded at 100 μL/well onto the microplate strips coated with insulin-Fc fusion protein. The microtiter plate was incubated for 1 hour at room temperature after which the microplate strips were washed 5 times with PBST and then loaded with 100 μL/well of streptavidin-HRP diluted 1:10000 in PBST/10% Superblock buffer. After incubating for 45 min, the microplate strips were washed again 5 times with PBST. TMB was added to reveal the bound Fc(gamma) receptor I proteins and stopped with ELISA stop reagent (Boston Bioproducts). The plate was read in an ELISA plate reader at 450 nm, and the OD values (proportional to the binding of rhFc(gamma) receptor I to insulin-Fc protein) were plotted against log concentrations of rhFc(gamma) receptor I added to each well to generate binding curves using GraphPad Prism software.
The insulin-Fc fusion protein of SEQ ID NO: 40 was synthesized in HEK293 cells according to the procedure of Example 1 and purified using a Protein A column according to Example 3. The structure of the insulin-Fc fusion protein was confirmed according to Example 4 by non-reducing and reducing CE-SDS, and the sequence was further identified by LC-MS with glycan removal according to Example 5. The protein yield was 174 mg/L at this stage. The % homodimer for the sequence was measured by size-exclusion chromatography according to Example 6 and was determined to be 98.9% resulting in a homodimer titer of 172 mg/L which meets the manufacturing design criteria.
(In an ELISA, binding on a coated surface is turned into a signal by an enzyme label.)

For experiment [4], the target named is T2, biotinylated recombinant human …. Described as above. As for the experimental part:
as §3
Low Fc(gamma) receptor binding is most likely to correlate with minimum immunogenicity.
This is another data set of the same source.

The target of another experiment is biotinylated canine FcRn (canine, UniProt A0A8I3PFR8 25-347, biotinylated (site not stated)). As to the kind of experiment: ELISA pH 5.5, fusion protein coated, biotinylated canine FcRn titrated. How it is done: Insulin-Fc fusion proteins comprising Fc fragments of canine or feline origin were diluted to 10 μg/ml in sodium bicarbonate pH 9.6 buffer and coated in duplicate on Maxisorb ELISA plate strips for 1-2 hours at RT. The strips were then washed 4 times with PBST (PBS/0.1% Tween-20) buffer and blocked with Superblock blocking reagent (ThermoFisher). Strips for FcRn binding were then washed again twice with pH 5.5 MES/NaCl/Tween (50 mM MES/l50 mM NaCl/0.1% Tween-20) buffer before addition of the FcRn reagent (biotinylated canine FcRn; Immunitrack). […] Serial dilutions (1:3× dilutions) of biotinylated FcRn reagent were prepared in pH 5.5 MES/NaCl/Tween/10% Superblock buffer at concentrations from 1000 ng/ml to 0.45 ng/ml and loaded at 100 μL/well using a multichannel pipettor onto the strips coated with the insulin-Fc fusion protein compounds. The assay plate was then incubated for 1 hour at room temperature. FcRn binding strips were washed 4 times with pH 5.5 MES/NaCl/Tween buffer and then loaded with 100 μl/well […] diluted 1:10000 in pH 5.5 MES/NaCl/10% Superblock buffer. After incubating for 45 minutes, strips were washed again 4 times with pH 5.5 MES/NaCl/Tween buffer. TMB was finally added to reveal the bound biotinylated-canine FcRn reagent, and the color development was stopped with the ELISA stop reagent. The plate was read in an ELISA plate reader at a wavelength of 450 nm. The OD values (proportional to the binding of canine-FcRn to the insulin-Fc fusion protein test compounds) were plotted against log concentrations of FcRn added to each well to generate binding curves using GraphPad Prism software. EC50 values for each binding curve were calculated to compare between different compounds.

For experiment [5], the target named is T1, human insulin receptor. The experiment is described as follows: competition with biotinylated RHI on IM-9 cells, flow cytometry, 4 C. The source holds these as a separate data set.

biotinylated canine FcRn, sequence (A0A8I3PFR8 entry or part of it): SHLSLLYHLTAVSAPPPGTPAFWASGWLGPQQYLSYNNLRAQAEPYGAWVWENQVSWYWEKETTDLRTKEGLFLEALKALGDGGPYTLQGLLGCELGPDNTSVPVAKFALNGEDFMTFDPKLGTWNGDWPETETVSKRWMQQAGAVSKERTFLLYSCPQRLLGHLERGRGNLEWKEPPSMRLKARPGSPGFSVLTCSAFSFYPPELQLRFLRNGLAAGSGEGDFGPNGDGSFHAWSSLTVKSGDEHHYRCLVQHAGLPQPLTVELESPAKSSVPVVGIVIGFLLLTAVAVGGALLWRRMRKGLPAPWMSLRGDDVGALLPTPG
T1 sequence (P06213 28-1382): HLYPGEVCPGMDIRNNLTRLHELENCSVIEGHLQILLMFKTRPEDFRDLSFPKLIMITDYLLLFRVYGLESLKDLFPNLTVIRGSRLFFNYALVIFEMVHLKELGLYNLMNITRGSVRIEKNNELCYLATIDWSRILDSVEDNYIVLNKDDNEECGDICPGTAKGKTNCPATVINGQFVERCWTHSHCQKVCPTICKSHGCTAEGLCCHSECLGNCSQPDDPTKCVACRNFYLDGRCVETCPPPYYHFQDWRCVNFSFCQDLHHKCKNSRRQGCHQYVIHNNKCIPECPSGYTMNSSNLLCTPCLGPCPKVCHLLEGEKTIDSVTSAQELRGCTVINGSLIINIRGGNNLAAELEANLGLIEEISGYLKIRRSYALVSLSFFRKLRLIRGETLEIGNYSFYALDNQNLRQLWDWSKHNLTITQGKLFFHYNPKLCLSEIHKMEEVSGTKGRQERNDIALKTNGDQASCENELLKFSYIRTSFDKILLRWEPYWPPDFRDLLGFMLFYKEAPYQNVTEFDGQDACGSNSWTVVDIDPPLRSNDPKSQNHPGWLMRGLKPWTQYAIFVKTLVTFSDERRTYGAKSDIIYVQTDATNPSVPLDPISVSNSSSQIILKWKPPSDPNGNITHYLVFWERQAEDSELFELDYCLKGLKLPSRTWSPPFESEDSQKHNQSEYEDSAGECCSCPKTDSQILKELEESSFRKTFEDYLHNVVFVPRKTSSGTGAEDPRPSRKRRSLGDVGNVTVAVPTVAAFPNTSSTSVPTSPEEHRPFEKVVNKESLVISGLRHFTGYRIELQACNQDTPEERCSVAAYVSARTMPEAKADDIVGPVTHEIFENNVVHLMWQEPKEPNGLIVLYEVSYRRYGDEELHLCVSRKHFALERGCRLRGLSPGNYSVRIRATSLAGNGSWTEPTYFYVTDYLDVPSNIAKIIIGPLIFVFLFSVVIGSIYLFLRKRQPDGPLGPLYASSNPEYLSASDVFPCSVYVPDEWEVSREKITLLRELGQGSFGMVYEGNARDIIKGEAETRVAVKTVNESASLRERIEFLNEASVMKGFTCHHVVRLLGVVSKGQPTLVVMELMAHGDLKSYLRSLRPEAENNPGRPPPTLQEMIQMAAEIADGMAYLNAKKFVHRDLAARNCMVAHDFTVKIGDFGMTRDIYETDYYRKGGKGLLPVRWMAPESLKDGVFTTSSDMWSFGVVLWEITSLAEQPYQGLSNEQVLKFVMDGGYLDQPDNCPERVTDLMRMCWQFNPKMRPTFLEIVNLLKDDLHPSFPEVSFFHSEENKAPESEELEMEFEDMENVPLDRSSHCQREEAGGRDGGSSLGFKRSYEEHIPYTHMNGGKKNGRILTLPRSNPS
T2 sequence (P12314 16-288 limits assumed): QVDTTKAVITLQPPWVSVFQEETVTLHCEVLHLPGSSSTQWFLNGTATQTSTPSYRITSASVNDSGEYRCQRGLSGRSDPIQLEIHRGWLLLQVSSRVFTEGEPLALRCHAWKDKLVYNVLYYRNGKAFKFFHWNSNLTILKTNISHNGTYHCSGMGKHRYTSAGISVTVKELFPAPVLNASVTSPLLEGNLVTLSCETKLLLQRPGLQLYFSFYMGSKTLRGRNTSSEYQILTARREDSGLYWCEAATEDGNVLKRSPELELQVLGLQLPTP

B1: insulin-Fc fusion protein of SEQ ID NO: 108 (Fc fusion)
chain: FVNQHLCGSDLVEALALVCGERGFFYTDPTGGGPRRGIVEQCCHSICSLYQLENYCNGGGGSGGGGDCPKCPPPEMLGGPSIFIFPPKPKDTLSISRTPEVTCLVVDLGPDDSDVQITWFVDNTQVYTAKTSPREEQFNSTYRVVSVLPILHQDWLKGKEFKCKVNSKSLPSPIERTISKDKGQPHEPQVYVLPPAQEELSRNKVSVTCLIEGFYPSDIAVEWEITGQPEPENNYRTTPPQLDSDGTYFLYSRLSVDRSRWQRGNTYTCSVSHEALHSHHTQKSLTQSPG
notes: about 49% homodimer
B1: the half-maximal inhibitory concentration (IC50) in the experiment with human insulin receptor [1] and in the experiment with human insulin receptor [2] was 62 nM throughout.

B2: insulin-Fc fusion protein of SEQ ID NO: 60 (Fc fusion)
chain: FVNQHLCGSDLVEALALVCGERGFFYTDPTGGGPRRGIVEQCCHSICSLYQLENYCNGGGGAGGGGDCPKCPAPEMLGGPSVFIFPPKPKDTLLIARTPEVTCVVVDLDPEDPEVQISWFVDGKQMQTAKTQPREEQFSGTYRVVSVLPIGHQDWLKGKQFTCKVNNKALPSPIERTISKARGQAHQPSVYVLPPSREELSKNTVSLTCLIKDFFPPDIDVEWQSNGQQEPESKYRTTPPQLDEDGSYFLYSKLSVDKSRWQRGDTFICAVMHEALHNHYTQESLSHSPG
notes: homodimer; also called cNg-S; cNg-NB139-S
Turning to B2, the “fold lower Fc(gamma)RI binding than SEQ ID NO: 52” value in experiment [3] amounted to 4 fold lower. For the same molecule, the “Ratio to SEQ ID NO: 52” value in experiment [4] was 0.24 ratio.

B3: insulin-Fc fusion protein of SEQ ID NO: 62 (Fc fusion)
chain: B2 chain with S139D
notes: homodimer; also called cNg-D; cNg-NB139-D
For B3, the “fold of Fc(gamma) receptor binding activity against SEQ ID NO: 60 and SEQ ID NO: 64” value in experiment [3] was ~2 fold. Besides, the “Ratio to SEQ ID NO: 52” value in experiment [4] was 0.44 ratio.

B4: insulin-Fc fusion protein of SEQ ID NO: 122 (Fc fusion)
chain: FVNQHLCGSHLVEALELVCGERGFHYGGGGGGSGGGGGIVEQCCTSTCSLDQLENYCGGGGGQGGGGQGGGGQGGGGGGEGPKCPVPEIPGAPSVFIFPPKPKDTLSISRTPEVTCLVVDLGPDDSNVQITWFVDNTEMHTAKTRPREEQFNSTYRVVSVLPILHQDWLKGKEFKCKVNSKSLPSAMERTISKAKGQPHEPQVYVLPPTQEELSENKVSVTCLIKGFHPPDIAVEWEITGQPEPENNYQTTPPQLDSDGTYFLYSRLSVDRSHWQRGNTYTCSVSHEALHSHHTQKSLTQSPG
notes: homodimer
As for B4, in the experiment with biotinylated canine FcRn, the response was half-maximal at 3.11 µg/mL (EC50). Besides, the IC50 (in general, the midpoint of a concentration-inhibition curve) with human insulin receptor [2] turned out to be 2540 nM.

B5: insulin-Fc fusion protein of SEQ ID NO: 38 (Fc fusion)
chain: FVNQHLCGSHLVEALELVCGERGFHYGGGGGGSGGGGGIVEQCCTSTCSLDQLENYCGGGGGQGGGGQGGGGQGGGGGDCPKCPPPEMLGGPSIFIFPPKPKDTLSISRTPEVTCLVVDLGPDDSDVQITWFVDNTQVYTAKTSPREEQFNSTYRVVSVLPILHQDWLKGKEFKCKVNSKSLPSPIERTISKDKGQPHEPQVYVLPPAQEELSRNKVSVTCLIEGFYPSDIAVEWEITGQPEPENNYRTTPPQLDSDGTYFLYSRLSVDRSRWQRGNTYTCSVSHEALHSHHTQKSLTQSPG
notes: homodimer
As for B5, the IC50 with human insulin receptor [5] is 2400 nM. Besides, it took 1.55 µg/mL to reach a half-maximal effect with biotinylated canine FcRn (EC50). In experiment [3], the binding result was “binds”.

B6: insulin-Fc fusion protein of SEQ ID NO: 124 (Fc fusion)
chain: B5 chain with N151S
notes: homodimer
Consider B6, for which the midpoint of the response in the experiment with biotinylated canine FcRn, the EC50, lay at 6.92 µg/mL.

B7: insulin-Fc fusion protein of SEQ ID NO: 40 (Fc fusion)
chain: B5 chain with E16A, N151S
notes: homodimer
B7 came in with an IC50 in the experiment with human insulin receptor [5] of 4640 nM. Besides, the EC50 (as a rule, the concentration at which the effect is half-maximal) with biotinylated canine FcRn worked out at 8.16 µg/mL. Also, in experiment [3], the “fold less Fc(gamma) receptor activity than SEQ ID NO: 38” value was ~4 fold less.

B8: insulin-Fc fusion protein of SEQ ID NO: 112 (Fc fusion)
chain: FVNQHLCGSDLVEALALVCGERGFFYTDPTGGGPRRGIVEQCCHSICSLYQLENYCNGGGGSGGGGGEGPKCPVPEIPGAPSVFIFPPKPKDTLSISRTPEVTCLVVDLGPDDSNVQITWFVDNTEMHTAKTRPREEQFNSTYRVVSVLPILHQDWLKGKEFKCKVNSKSLPSAMERTISKAKGQPHEPQVYVLPPTQEELSENKVSVTCLIKGFHPPDIAVEWEITGQPEPENNYQTTPPQLDSDGTYFLYSRLSVDRSHWQRGNTYTCSVSHEALHSHHTQKSLTQSPG
notes: Feline IgG2 Fc, B16A insulin polypeptide; homodimer
With B8, the 50% inhibitory concentration (IC50) with human insulin receptor [1] and with human insulin receptor [2] was 53 nM in each case.

B9: insulin-Fc fusion protein of SEQ ID NO: 106 (Fc fusion)
chain: B8 chain with A16Y
notes: homodimer
For B9, the IC50 with human insulin receptor [1] and with human insulin receptor [2] was 22 nM each time.

B10: insulin-Fc fusion protein of SEQ ID NO: 110 (Fc fusion)
chain: B8 chain with S62A
notes: homodimer
Molecule B10 came in with a half-inhibitory concentration (IC50) with human insulin receptor [1] of 41 nM.
